Target: T1, PUF4 RNA-binding domain (Saccharomyces cerevisiae, UniProt P25339 537-888)
T1 sequence: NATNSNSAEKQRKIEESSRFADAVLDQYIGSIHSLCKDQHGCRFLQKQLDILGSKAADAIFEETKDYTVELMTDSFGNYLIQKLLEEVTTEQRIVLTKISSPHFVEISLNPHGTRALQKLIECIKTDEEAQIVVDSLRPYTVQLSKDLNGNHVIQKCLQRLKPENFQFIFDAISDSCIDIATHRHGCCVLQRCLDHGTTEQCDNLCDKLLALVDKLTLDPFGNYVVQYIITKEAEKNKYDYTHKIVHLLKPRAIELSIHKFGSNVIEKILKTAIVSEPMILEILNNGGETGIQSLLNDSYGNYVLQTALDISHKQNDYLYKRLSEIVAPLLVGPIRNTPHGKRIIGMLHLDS
Assay: Mg; RNA-MaP; 20 mM Na-HEPES pH 7.4, 30 mM KOAc, 0.75 mM MgCl2, 0.1% Tween-20, 5% glycerol, 0.1 mg/mL BSA, 2 mM DTT; 25 C; 0.0125-409.6 nM protein
Conditions: tags: N-His6-TEV cleaved; C-SNAP kept, Cy3B-labelled; label: tethered on chip by stalled RNA polymerase

B1: Ib_S4_P5E.1_K5.1_C5.1_H5.1_[T1C]_A5.1_[T6A]_F5.1_T5.1 (ssRNA)
RNA: UUUGACAACUGAUCGUUCUUUCUCGUAUAAUUAUUCUUUCUCGAUCAGUUGUCUUU
B1 was tested, and the Kd was 1040 nM.

B2: Ib_S4_P5E.1_K5.1_C5.1_H5.1_[T1A]_A5.1_[T6C]_F5.1_T5.1 (ssRNA)
RNA: UUUGACAACUGAUCGUUCUUUCUAGUAUCAUUAUUCUUUCUCGAUCAGUUGUCUUU
B2 was tested, and the Kd was greater than 2300 nM.

B3: Ib_S4_P5E.1_K5.1_C5.1_H5.1_[T1C]_A5.1_[A7G]_F5.1_T5.1 (ssRNA)
RNA: UUUGACAACUGAUCGUUCUUUCUCGUAUUGUUAUUCUUUCUCGAUCAGUUGUCUUU
Work on B3 yielded a Kd of 2200 nM.

B4: Ib_S4_P5E.1_K5.1_C5.1_H5.1_[T1C]_A5.1_[A7T]_F5.1_T5.1 (ssRNA)
RNA: UUUGACAACUGAUCGUUCUUUCUCGUAUUUUUAUUCUUUCUCGAUCAGUUGUCUUU
With B4 the Kd was 370 nM.

B5: Ib_S4_P5E.1_K5.1_C5.1_H5.1_[G2C]_A5.1_[T5A]_F5.1_T5.1 (ssRNA)
RNA: UUUGACAACUGAUCGUUCUUUCUUCUAAUAUUAUUCUUUCUCGAUCAGUUGUCUUU
In the case of B5, the Kd is reported as greater than 2300 nM.

B6: Ib_S4_P5E.1_K5.1_C5.1_H5.1_[G2T]_A5.1_[T5C]_F5.1_T5.1 (ssRNA)
RNA: UUUGACAACUGAUCGUUCUUUCUUUUACUAUUAUUCUUUCUCGAUCAGUUGUCUUU
Work on B6 yielded a Kd greater than 2300 nM.

B7: Ib_S4_P5E.1_K5.1_C5.1_H5.1_[G2T]_A5.1_[T5A]_F5.1_T5.1 (ssRNA)
RNA: UUUGACAACUGAUCGUUCUUUCUUUUAAUAUUAUUCUUUCUCGAUCAGUUGUCUUU
B7 was tested, and the Kd was greater than 2300 nM.

B8: Ib_S4_P5E.1_K5.1_C5.1_H5.1_[G2A]_A5.1_[T5G]_F5.1_T5.1 (ssRNA)
RNA: UUUGACAACUGAUCGUUCUUUCUUAUAGUAUUAUUCUUUCUCGAUCAGUUGUCUUU
B8 gave a Kd of 1940 nM.

B9: Ib_S4_P5E.1_K5.1_C5.1_H5.1_[G2C]_A5.1_[T6C]_F5.1_T5.1 (ssRNA)
RNA: UUUGACAACUGAUCGUUCUUUCUUCUAUCAUUAUUCUUUCUCGAUCAGUUGUCUUU
B9 showed a Kd of 1940 nM.

B10: Ib_S4_P5E.1_K5.1_C5.1_H5.1_[G2C]_A5.1_[T6A]_F5.1_T5.1 (ssRNA)
RNA: UUUGACAACUGAUCGUUCUUUCUUCUAUAAUUAUUCUUUCUCGAUCAGUUGUCUUU
With B10 the Kd was greater than 2300 nM.

For UCUCUUUGUUUAUAUCUCUU (ssRNA) [Ia_S1_P3E.1_K3.1_C3.1_H3.1_[A4T]_A3.1_F3.1_T3.1], the Kd was 478 nM.

B11: Ic_S4_P4E.1_K4.1_C4.1_H4.1_A4.1_[T7G]_F4.1_T4.1 (ssRNA)
RNA: UUUGACAACUGAUCGUUCUUUCUUGUAUAGUAUUCUUUCUCGAUCAGUUGUCUUU
B11 gave a Kd of 1.66 nM.

B12: Ib_S4_P5E.1_K5.1_C5.1_H5.1_[G2A]_A5.1_[T6A]_F5.1_T5.1 (ssRNA)
RNA: UUUGACAACUGAUCGUUCUUUCUUAUAUAAUUAUUCUUUCUCGAUCAGUUGUCUUU
In the case of B12, the Kd is reported as 696 nM.

B13: Ib_S4_P5E.1_K5.1_C5.1_H5.1_[G2T]_A5.1_[A7C]_F5.1_T5.1 (ssRNA)
RNA: UUUGACAACUGAUCGUUCUUUCUUUUAUUCUUAUUCUUUCUCGAUCAGUUGUCUUU
In the case of B13, the Kd is reported as greater than 2300 nM.

B14: Ib_S4_P5E.1_K5.1_C5.1_H5.1_[G2A]_A5.1_[A7G]_F5.1_T5.1 (ssRNA)
RNA: UUUGACAACUGAUCGUUCUUUCUUAUAUUGUUAUUCUUUCUCGAUCAGUUGUCUUU
B14 gave a Kd of 904 nM.

B15: Ib_S4_P5E.1_K5.1_C5.1_H5.1_[T3C]_A5.1_[T5C]_F5.1_T5.1 (ssRNA)
RNA: UUUGACAACUGAUCGUUCUUUCUUGCACUAUUAUUCUUUCUCGAUCAGUUGUCUUU
For B15, the Kd was 204 nM.

B16: Ib_S4_P5E.1_K5.1_C5.1_H5.1_[T3C]_A5.1_[T5A]_F5.1_T5.1 (ssRNA)
RNA: UUUGACAACUGAUCGUUCUUUCUUGCAAUAUUAUUCUUUCUCGAUCAGUUGUCUUU
B16 showed a Kd of 872 nM.

B17: Ib_S4_P5E.1_K5.1_C5.1_H5.1_[T3C]_A5.1_[A7G]_F5.1_T5.1 (ssRNA)
RNA: UUUGACAACUGAUCGUUCUUUCUUGCAUUGUUAUUCUUUCUCGAUCAGUUGUCUUU
In the case of B17, the Kd is reported as 1520 nM.

B18: Ib_S4_P5E.1_K5.1_C5.1_H5.1_[T3C]_A5.1_[A7C]_F5.1_T5.1 (ssRNA)
RNA: UUUGACAACUGAUCGUUCUUUCUUGCAUUCUUAUUCUUUCUCGAUCAGUUGUCUUU
In the case of B18, the Kd is reported as 1630 nM.

B19: Ib_S4_P5E.1_K5.1_C5.1_H5.1_[T3C]_A5.1_[A7T]_F5.1_T5.1 (ssRNA)
RNA: UUUGACAACUGAUCGUUCUUUCUUGCAUUUUUAUUCUUUCUCGAUCAGUUGUCUUU
B19 was tested, and the Kd was 414 nM.

B20: Ib_S4_P5E.1_K5.1_C5.1_H5.1_[A4C]_A5.1_[T5G]_F5.1_T5.1 (ssRNA)
RNA: UUUGACAACUGAUCGUUCUUUCUUGUCGUAUUAUUCUUUCUCGAUCAGUUGUCUUU
Work on B20 yielded a Kd of 34.4 nM.
